These results are taken from a protein production outcome set (Wang et al. 2014).

This data set can be described thus: label from the status in PepcDB records.

Regarding “MGNYLLRKLSCLGENQKKPKKGNPDEERKRQEMTTFERKLQDQDKKSQEVSSTSNQENENGSGSEEVCYTVINHIPHQRSSLSSNDDGYENIDSLTRKVRQFRERSETEYALLRTSVSRPCSCTHEHDYEVVFPH”, the protein production entry is listed as “not failed”.
For “MGPAVKKASKGILSDVLKCLTNNIKHMREFTLAVVDKMVAGLSDFVDATHLLKPASNRSD”, the protein production result was “failed”.
For “MGPKVSVITVCYNAEEFIENAIYSVLNQSYENIEYIIIDGASKDNTVSIINKYRSVMACFISEPDKGMYEAMNKGIKAATGDILYFLNSDDVFYDEYVVENVVKVFQKNNNVELIYGPIIIRDPTTNESFIKPHDYITKSYFIYNSICQQGIFYKASVFNKCGQFNDTYKIVGDYEWELRAFYKYNIKRKYYEGIIAIFRDGGMCNCDKFSDLHAKERTKVIKEYFNIFVIYKYKFLLFCRSAIKRLELEHHHHHH”, the protein production result was “failed”.
Next, “MGQAPDRPHLETFLARLRAGAKILELGCGGGQDSEYMLSAGFDVHPTDGTPDIAKAAQARLGIPVRTLLFENIEDAALYDAVWANACLLHVPRLALPGIIGRIHTALKPGGVFYASFKAGEVEGRDTFGRYYNYPSKAWLEETYGQFAWTEVEIEARQGSGYDKLPTDWLHVTATKALEHHHHHH”: “failed”; “MGQMFGVACIDEQSGIVGQAWNNNSVRYISIDEDAVITIQSGPVVGKVAVSNDKTLAYGATINGANTVYVYKKSQAWVPSRLSDISSGTDVWAVALNGDNQWLYYVTANGRLGRIEVDNPTHNEILFEHNDFSGGPFAYIAYSAFEDCFYVTTDKNKILKVWVKEDGTHAYEQINQNNTGTTDGFLADEAKFQYLRGLTIDEDGNIFVCQGDNSHVIRKIAYDENMEKRYVTTVLGTSTVHGTDDGSPDIALFNGPQDISYDGNGGYWIAMRYEPALRKYSIELEHHHHHH”: “failed”.
Under “MGQPVASKGRGATPTVGKAMLNKYARAFFTRVLTPFAAFLIRRGVSPDTVTLLGTAGVVAGALVFYPMGEFFWGTVVITLFVFSDLVDGNMARQLGRSSRWGAFLDSTLDRVADGAIFGGLALWYAGGGDDIVLCAVSIFCLASGQVVSYTKARGEAIGLPVAVNGLVERAERLVVSLVAAGFAGLHKFGVPGIQYLLPIALWIVAVGSLVTLVQRVVTVRREAAEADAAAQESQGTEAAK” stands “failed”; under “MGRCSHGLREGRRGEPVRDPTPLDRAGCSVLPGGAKLYYSMAFKMHVPPRGSGHIEEPRRLDKALKALKKSRLLDMLEKVDPGFQSLRVFETVHDPLYIKGILAELEAALDSYFIDSDTYISPGTQAALEALAASVEQASEHVAEGGKALVLGRPPGHHAGVAGPGLGAPSLGACLVNAAASLAYRLAGRGLKVLILDFDANHGNGTQEILQALPMGDRLFHLDMHQDWRKSFPWTGEPGVTGDGTALNIVLPEGSGDDIVLALIEGLEPLVNESEPDAVVVSMGFDGYSGDSPLTLTKLTSHTFHALGRLASRYPVAAVLETGFGRGLELGLPAFIAGLLGLGNPVQEEAIKSDEEVWREFLETNKEVVEHG”, “failed”; under “MGRFHQYQPRQLSVASVNHADDNDRLPAISLVTPSFNQASFVEKTLESVLGQNYPKLQYIVQDGLSTDGTREILGRYATRNVDIRIETDGGQTDALNKGFAHADGEIMGYLNSDDLLLPGTLCLVGRYFRDNPSVDVIYGNRLIVDEAGREVGRWVLPEHDSEILTFIDYVPQETMFWRRRIWERVGGRFDTDFHFAMDWELLLRFIHAGAVFRHLPGLFGAFRVHGQQKSQAEFLVRGIGEMNGLRLRYGGRNISFVRRIALHWAYLSQHRLADAAFEASLRKNG”, “failed”.
Under “MGRGYEVISTEVCPLCKGKGKSKSVDFMKISEKDIDSFLKNGAVCEKCKGKGSIEITRPCEACEGLGKIYTCKVCGARIHNPEDAEDEICSTCARSQHVYALDESCDLEHHHHHH” stands “not failed”; under “MGRKIVFFDIDGTLLDEQKQLPLSTIEAVRRLKQSGVYVAIATGRAPFMFEHVRKQLGIDSFVSFNGQYVVFEGNVLYKQPLRREKVRALTEEAHKNGHPLVFMDAEKMRASIGDHPHIHVSMASLKFAHPPVDPLYYENKDIYQALLFCRAEEEEPYVRNYPEFRFVRWHDVSTDVLPAGGSKAEGIRMMIEKLGIDKKDVYAFGDGLNDIEMLSFVGTGVAMGNAHEEVKRVADFVTKPVDKEGIWYGLKQLQLIR”, “not failed”.
Take “MGRKVRAYFVHLFTASGVAFAFLAMREVVRVDLDPRWVFGWLTLAVFIDAADGPLARLWDVKLYASRILGKTIDLIVDYLTFTFIPLTLVWRMDWLPGWDGLWVTLAMVASLLGFANTAAKQSQEGFFLGFPSYWNVVAYYVGLLAVEYGAVGAYVSLGSVLTLTVLTLVPVRFVYPNAAPTPWRAIVTVGGVAWLGLLLALLPTFPELPAWGGDWVLGVSFVYPAFYFGLSGWLDWTSRQS”: the protein production result was “failed”.
For the sequence “MGRLFVVNLEGKIYSCKHCKTHLATYEDIISKSFHCKHGKAYLFNKVANVSIGETEERLMMTGKHTVADIFCVSCGSIVGWKYETAHEKNQKYKEGKSVLERFKISGPDGSNYWVSSHGRHIGGSDADDA”, the protein production entry is recorded as “failed”.
Next, “MGRLGWVDPESFMQRNHELMDAYSAGKLAMEEFMAFSLEPMAGRTPEEVDHLVGPWVEDVIEPIIYSDACKCIAQHRAKGDRILVISASGVHLVKPIAERLGIDEVLGIELDVQHGVYSGATVGVLTYREGKITRLMEWLDAEGENLEGASFYSDSRNDLPLLLKVDHPNVVNPDPVLLEHAQQAGWPVHTWV”: “failed”; “MGRRKKILFTDYFINLVDTYKLNQVGERTYNKYCLTHRHLKKICPDLYLQDMNANDYQQILNEFGKTHEKATTVDFHHQLAWALKRAYNVDGLTDRDVTYDAQIPKGVVTNKKKPKFMELDDMKKLVVTLKYLNSSYANFFLILLKTGLRFAELLGITLEDIDFEKKTISINKTLDYKKGAYDENFSRRFKSTKNKYSIRTIPVDDAVIYMFWRNAKGADKDESIFGSIKGFQYNSSLNNKLEQTCKYAGVPVITLHGLRHEHATYLVSQGIDSRAVAERLGHVDDSVTREVYIHRLETERVRDNQQIMRSVSKI”: “failed”.
For the sequence “MGRRLVPLTLDNLPDLPKRCRACVFWELDPVSGEAAVKAGTSALEKEAWISAVLLDWGSCGRVVYVDDVPVGFVLYAPPAYVPRSTAFPTSPVSPDAVQLMTAFIMPGYQGQGLGRVMVQTVAKDLLRRGFKAIEAFGDAHWK”, the protein production result is listed as “failed”.
Under “MGRVKLELKRIEKSTNRQITFSKRKKGLIKKAYELSTLCDIDLALLMFSPSDRLCLFSGQTRIEDVLARYINLPDQERENAIVFPDQSKRQGIQNKEYLLRTLEKLKIEDDMALQINEPRFIPH” stands “failed”.
Turning to “MGRVLDRIEVVAEEIRGQAVQSEADCRLTDAAAGLLRDSGAIRLLQPRLYGGYEVHPREFAETVMGVAALDGASGWVTGIVGVHPWELAFADPQVQEEIWGEDNDTWMASPYAPMGVATPVDGGYVLKGRWSFSSGTDHCQWAFLGAMVGDGEGGIATPSSLHVILPRTDYQIVEDTWDVIGLRGTGSKDLIVDGAFVPGYRTLNAAKVMDGRAQKEAGRPEPLFNMPYSCMFPLGITAAVIGITEGALACHIAVQKDRVAITGQKIKEDPYVLSAIGESAAEINASRVSLIETADRFYDKVDAGKEITFEERAIGRRTQIAAAWRAVRAADEIFARAGGGALHYKTPMQRFWRDAHAGLAHAVHVPGPTNHASALTQLGGEPQGMMRAMI”, the protein production entry is listed as “not failed”.
For “MGSIDRYIFRTTLVSFAVVMGSLTGVIWITQALRGIDLMTSQGQTIITFLGLTGLAVPVLVLVIAPIALMIAVAHTLNRLATDSEIIVMNAAGLSPIRLFRPFFYATMVVAALVIIIGAYIAPDGLRRIARWDSEITADVLANVLQPGRFAQLEQGLTIRVRERQPGGLLVGVFIDDARAPNERVSIIADHGTVVKNDKGSFLVLEDGHLERFQTGKQEPALVAFSRYAFDMSKFSRARDVAYGIRERYLWELLWPAENDPLLARLPTEFRSEMHDRLLAPIYPFFFAAVAFAFLGLARTTRQSRNFSMAGAVLVAFVVRLAGFALSVIANKTPYVAGLQYLLLFVATGTCLWLINRNVVIEPPARVTEALNAFNASIARLIRRPVPA”, the protein production entry is on record as “failed”.
